Read-outs that look alike come from different tables or passages of the source.
Tests used:
mCherry-RalB = mCherry-RalB (UniProt P11234); assay: co-IP
GFP-RalB [1] = target: GFP-RalB (UniProt P11234); assay: pull-down
GFP-RalA [2] = target: GFP-RalA (UniProt P11233); assay: pull-down
[3] = target: angiomotin (GFP-fused bait) (UniProt Q4VCS5); assay: pull-down
GFP-RalB [4] = target: GFP-RalB (UniProt P11234); assay: pull-down; remark: listed apart in the source
GFP-RalA [5] = target: GFP-RalA (UniProt P11233); assay: pull-down; remark: listed apart in the source

Chain of UniProt P11233 (P11233 whole entry, the tested form may be a part): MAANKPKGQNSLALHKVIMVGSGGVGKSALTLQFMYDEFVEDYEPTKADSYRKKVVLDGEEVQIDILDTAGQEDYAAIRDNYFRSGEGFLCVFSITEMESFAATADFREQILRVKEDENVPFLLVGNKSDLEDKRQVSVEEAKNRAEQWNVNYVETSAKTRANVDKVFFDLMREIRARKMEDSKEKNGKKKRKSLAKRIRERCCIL
Chain of UniProt Q4VCS5 (Q4VCS5 whole entry, the tested form may be a part): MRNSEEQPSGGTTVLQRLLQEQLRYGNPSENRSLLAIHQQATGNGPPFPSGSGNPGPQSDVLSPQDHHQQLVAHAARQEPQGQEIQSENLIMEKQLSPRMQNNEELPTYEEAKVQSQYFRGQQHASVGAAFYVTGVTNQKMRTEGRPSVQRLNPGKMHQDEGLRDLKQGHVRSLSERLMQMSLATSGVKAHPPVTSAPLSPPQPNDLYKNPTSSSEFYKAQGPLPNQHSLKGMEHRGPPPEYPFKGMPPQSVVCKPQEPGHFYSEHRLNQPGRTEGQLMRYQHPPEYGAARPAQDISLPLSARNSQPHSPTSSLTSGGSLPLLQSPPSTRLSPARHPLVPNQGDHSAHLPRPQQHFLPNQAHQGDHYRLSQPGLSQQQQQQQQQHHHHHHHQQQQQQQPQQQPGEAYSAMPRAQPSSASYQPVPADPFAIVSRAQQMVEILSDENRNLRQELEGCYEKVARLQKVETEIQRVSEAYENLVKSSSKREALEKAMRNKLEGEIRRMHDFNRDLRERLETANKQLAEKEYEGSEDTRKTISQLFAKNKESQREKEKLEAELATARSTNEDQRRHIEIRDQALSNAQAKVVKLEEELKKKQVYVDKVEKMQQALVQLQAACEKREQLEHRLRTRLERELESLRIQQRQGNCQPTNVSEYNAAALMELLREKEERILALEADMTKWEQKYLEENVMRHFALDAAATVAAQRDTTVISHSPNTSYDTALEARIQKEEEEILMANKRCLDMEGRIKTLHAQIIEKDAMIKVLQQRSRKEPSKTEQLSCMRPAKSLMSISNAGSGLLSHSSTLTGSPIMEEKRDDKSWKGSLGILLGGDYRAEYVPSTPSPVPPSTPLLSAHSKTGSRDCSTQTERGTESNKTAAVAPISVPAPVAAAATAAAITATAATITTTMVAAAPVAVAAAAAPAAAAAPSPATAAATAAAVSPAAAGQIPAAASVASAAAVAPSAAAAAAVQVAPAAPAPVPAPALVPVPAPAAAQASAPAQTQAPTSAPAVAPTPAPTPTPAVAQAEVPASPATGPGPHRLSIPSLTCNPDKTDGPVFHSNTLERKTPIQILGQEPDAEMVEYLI

Substance	percent reduction of RalB binding to Exo84 (mCherry-RalB) [%]	percent reduction of RalB binding to Sec5 (mCherry-RalB) [%]	fold binding over the GFP control (GFP-RalB [1]) [fold]	fold binding over the GFP control (GFP-RalA [2]) [fold]	fold binding over the GFP control [3] [fold]	fold binding over the GFP control (GFP-RalB [4]) [fold]	fold binding over the GFP control (GFP-RalA [5]) [fold]
Merlin-GFP (wild type) (from UniProt P35240 1-595) (natural protein)	50	50					
Merlin-NanoLuc (from UniProt P35240 1-595) (natural protein)			7	7	> 65	> 50	> 50

Source: doi:10.1101/2025.06.13.659557
